In patent US20100008917A1 (published 2010):

B1: human IL27RA-Fc5 fusion protein (Fc fusion)
chain: QGSAGPLQCYGVGPLGDLNCSWEPLGDLGAPSELHLQSQKYRSNKTQTVAVAAGRSWVAIPREQLTMSDKLLVWGTKAGQPLWPPVFVNLETQMKPNAPRLGPDVDFSEDDPLEATVHWAPPTWPSHKVLICQFHYRRCQEAAWTLLEPELKTIPLTPVEIQDLELATGYKVYGRCRMEKEEDLWGEWSPILSFQTPPSAPKDVWVSGNLCGTPGGEEPLLLWKAPGPCVQVSYKVWFWVGGRELSPEGITCCCSLIPSGAEWARVSAVNATSWEPLTNLSLVCLDSASAPRSVAVSSIAGSTELLVTWQPGPGEPLEHVVDWARDGDPLEKLNWVRLPPGNLSALLPGNFTVGVPYRITVTAVSASGLASASSVWGFREELAPLVGPTLWRLQDAPPGTPAIAWGEVPRHQLRGHLTHYTLCAQSGTSPSVCMNVSGNTQSVTLPDLPWGPCELWVTASTIAGQGPPGPILRLHLPDNTEPKSSDKTHTCPPCPAPEAEGAPSVFLFPPKPKDTLMISRTPEVTCVVVDVSHEDPEVKFNWYVDGVEVHNAKTKPREEQYNSTYRVVSVLTVLHQDWLNGKEYKCKVSNKALPSSIEKTISKAKGQPREPQVYTLPPSRDELTKNQVSLTCLVKGFYPSDIAVEWESNGQPENNYKTTPPVLDSDGSFFLYSKLTVDKSRWQQGNVFSCSVMHEALHNHYTQKSLSLSPGK
B2: IL27RAm(mFc1) (Fc fusion)
chain: TRPHGSPGPLQCYSVGPLGILNCSWEPLGDLETPPVLYHQSQKYHPNRVWEVKVPSKQSWVTIPREQFTMADKLLIWGTQKGRPLWSSVSVNLETQMKPDTPQIFSQVDISEEATLEATVQWAPPVWPPQKALTCQFRYKECQAEAWTRLEPQLKTDGLTPVEMQNLEPGTCYQVSGRCQVENGYPWGEWSSPLSFQTPFLDPEDVWVSGTVCETSGKRAALLVWKDPRPCVQVTYTVWFGAGDITTTQEEVPCCKSPVPAWMEWAVVSPGNSTSWVPPTNLSLVCLAPESAPCDVGVSSADGSPGIKVTWKQGTRKPLEYVVDWAQDGDSLDKLNWTRLPPGNLSTLLPGEFKGGVPYRITVTAVYSGGLAAAPSVWGFREELVPLAGPAVWRLPDDPPGTPVVAWGEVPRHQLRGQATHYTFCIQSRGLSTVCRNVSSQTQTATLPNLHSGSFKLWVTVSTVAGQGPPGPDLSLHLPDNRIREPRGPTIKPCPPCKCPAPNLLGGPSVFIFPPKIKDVLMISLSPIVTCVVVDVSEDDPDVQISWFVNNVEVHTAQTQTHREDYNSTLRVVSALPIQHQDWMSGKEFKCKVNNKDLPAPIERTISKPKGSVRAPQVYVLPPPEEEMTKKQVTLTCMVTDFMPEDIYVEWTNNGKTELNYKNTEPVLDSDGSYFMYSKLRVEKKNWVERNSYSCSVVHEGLHNHHTTKSFSRTPGK

Experiments:
Assay in all cases: cell-based or functional assay
[1] = molecular target: T1, mouse IL-27 (muIL-27), as used in Example 5 (mouse, UniProt O35228 19-228; Q8K3I6 29-234, limits assumed)
T1 sequence (looked up) 1: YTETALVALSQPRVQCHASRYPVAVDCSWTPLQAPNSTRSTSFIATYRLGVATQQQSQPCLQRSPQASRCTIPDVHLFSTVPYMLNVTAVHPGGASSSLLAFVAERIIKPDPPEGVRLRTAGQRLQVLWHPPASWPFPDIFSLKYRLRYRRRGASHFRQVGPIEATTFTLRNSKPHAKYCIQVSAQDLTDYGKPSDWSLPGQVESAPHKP
T1 sequence (looked up) 2: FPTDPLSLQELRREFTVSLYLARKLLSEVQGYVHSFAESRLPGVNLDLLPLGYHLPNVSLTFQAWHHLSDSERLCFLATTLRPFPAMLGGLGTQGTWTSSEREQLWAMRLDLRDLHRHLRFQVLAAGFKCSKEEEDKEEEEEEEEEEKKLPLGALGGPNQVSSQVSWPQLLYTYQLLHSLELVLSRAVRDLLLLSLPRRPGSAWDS

[2] = molecular target: T2, human IL-27 (huIL-27), as used in Example 5 (human, UniProt Q14213 21-229; Q8NEV9 29-243, limits assumed)
T2 sequence (looked up) 1: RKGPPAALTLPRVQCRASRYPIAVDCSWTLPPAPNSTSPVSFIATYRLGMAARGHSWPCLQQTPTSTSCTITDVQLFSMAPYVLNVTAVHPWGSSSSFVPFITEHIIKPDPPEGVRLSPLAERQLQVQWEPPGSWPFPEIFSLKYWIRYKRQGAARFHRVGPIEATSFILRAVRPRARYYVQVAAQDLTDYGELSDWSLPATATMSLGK
T2 sequence (looked up) 2: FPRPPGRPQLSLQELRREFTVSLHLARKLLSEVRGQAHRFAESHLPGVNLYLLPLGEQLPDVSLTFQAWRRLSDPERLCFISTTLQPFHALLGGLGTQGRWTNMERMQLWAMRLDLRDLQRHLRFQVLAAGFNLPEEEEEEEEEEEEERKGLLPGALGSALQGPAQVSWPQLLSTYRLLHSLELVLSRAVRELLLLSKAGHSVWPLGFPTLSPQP

[3] = molecular target: T1, mouse IL-27 (muIL-27), as used in …; remark: listed apart in the source
[4] = molecular target: T2, human IL-27 (huIL-27), as used in …; remark: listed apart in the source

Row | Binder | IC50 (nM), phospho-STAT3 in mouse spleens stimulated with the EC90 of the ligand [1] | IC50 (nM), phospho-STAT3 in mouse spleens stimulated with the EC90 of the ligand [2] | IC50 (nM), phospho-STAT3 in total human PBMCs stimulated with the EC90 of the ligand [3] | IC50 (nM), phospho-STAT3 in total human PBMCs stimulated with the EC90 of the ligand [4]
1 | B1 | 0.14 nM | 0.32 nM | 2.97 nM | 0.95 nM
2 | B2 | 0.18 nM | 9.3 nM | 4.83 nM | 1370 nM
